Measurements reported in publication PMC4013067.

Details: N-glycosylation at N138

| Substance | localisation_or_trafficking | other | expression_or_secretion |
| --- | --- | --- | --- |
| nicotinic acetylcholine receptor β4 subunit: M467V+S140G, co-expressed with α3 | decreases, relative surface ELISA 0.17±0.02 vs 1.00 (WT), P<0.001 |  |  |
| nicotinic acetylcholine receptor β4 subunit: S140G (sequon disruption), co-expressed with α3: nicotine EC50 |  | changes, nicotine EC50 22±4 µM (WT) to 48±4 µM, P<0.05; ACh EC50 not significantly changed |  |
| nicotinic acetylcholine receptor β4 subunit: S140G (sequon disruption), co-expressed with α3 | abolishes, relative surface ELISA −0.04±0.05 vs 1.00 (WT), P<0.001 |  | no change |
| nicotinic acetylcholine receptor β4 subunit: S140G (sequon disruption), co-expressed with α4: ACh and nicotine EC50 |  | changes, ACh EC50 9.36±1.35 to 16.7±2.1 µM (P<0.01); nicotine EC50 1.48±0.17 to 2.75±0.27 µM (P<0.01); sag to ACh 0.90 to 0.76 (P |  |
| nicotinic acetylcholine receptor β4 subunit: S140G (sequon disruption), co-expressed with α4 | abolishes, relative surface ELISA −0.13±0.22 vs 1.00 (WT), P<0.001 |  |  |
